This is an account of results in publication PMC4787601.

The target of the test is phospholamban peptide, first 21 amino acids, wild type (UniProt P26678). Description: SPR.
Sequence of UniProt P26678 (P26678 1-21): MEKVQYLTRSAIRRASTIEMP

Consider “purified AKAP7γ (from UniProt Q9P0M2 1-348) (natural protein)”, for which the Kd came out at 13.3 nM.

By Kd is commonly meant the free concentration of one partner at which half of the binding sites on the other are occupied at equilibrium, for simple one-to-one binding. The low end stands for higher affinity, the high end for lower affinity.
